The source of these data is patent US20170081417A1 (Kyowa Kirin, published 2017).

Assay [1] deals with T1, human OX40 (CD134), full length, expressed on cells (activated human T cells); EL4-OX40 and CHO-OX40 … (human, UniProt P43489 29-277).
T1 sequence: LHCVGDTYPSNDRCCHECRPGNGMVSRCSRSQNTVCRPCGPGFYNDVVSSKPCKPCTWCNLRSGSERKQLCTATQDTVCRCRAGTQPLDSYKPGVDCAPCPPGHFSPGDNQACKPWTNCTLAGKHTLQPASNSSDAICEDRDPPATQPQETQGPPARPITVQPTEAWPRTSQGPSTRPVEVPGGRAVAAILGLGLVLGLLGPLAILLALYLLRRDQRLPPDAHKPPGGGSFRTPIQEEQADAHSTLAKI
Nature of the assay: cell-based or functional assay.

Another assay deals with T2, human OX40 peptide 112A (human, also: conjugated to KLH via maleimide linker).
T2 peptide: RPAGPGFYNDVVSSKPC
Put plainly: ELISA on coated KLH-conjugated peptide. The procedure:
(§1) Antibody titers, specificity, and production by hybridomas were determined by ELISA. In brief, 96 well flat bottom plates were coated with 50 μl of hOX40:hFc at 5 μg/ml in carbonate buffer (pH 9.4) overnight at 4° C. or at 37° C. for one hour. After washing twice with PBS/0.1% Tween 20, plates were blocked with PBS/1% BSA/0.1% Tween20 at 37° C. for one hour. The serum, supernatant, or purified antibody was diluted in blocking buffer, added to the wells, and the plates were incubated for one hour at 37° C. The plates were washed four times with PBS/0.1% Tween 20 and the peroxidase conjugated sheep anti-human kappa detection antibody (The Binding Site, Birmigham, UK) was added at a dilution of 1:2000. Following one hour incubation at 37° C., the plates were washed and the TMB (Sigma) substrate was added and incubated at room temperature for ten to thirty minutes. The reaction was stopped with H₂SO₄ (LabChem) and the optical density was measured at 450 nm by a microplate reader.
(§2) The peptides were generated by A & A Lab, LLC and conjugated to keyhole limpet hemocyanin (“KLH”) with a maleimide linker following the manufacturer's instructions (Pierce). The peptides were coated at 10 μg/ml in carbonate buffer to 96 well Maxisorp ELISA plates (Nunc) at 4° C. overnight. The plate was washed with PBS/0.1% Tween 20 and then blocked with Casein buffer (Pierce) for three hours at room temperature. Candidate antibodies were added at 10 μg/ml diluted in 10% Casein in PBS/0.1% Tween 20. The remainder of the ELISA was performed as described for the OX40 specific antibody detection ELISA.

The target of the next assay is T3, human OX40 peptide 112B (human, also: conjugated to KLH via maleimide linker).
T3 peptide: RAGTQPLDSYKPGVDC
Put plainly: ELISA on coated KLH-conjugated peptide. The procedure: as §1, §2

The target of a further assay is T4, human OX40 peptide 112C (human, also: conjugated to KLH via maleimide linker).
T4 peptide: LAGKHTLQPASNSSDAIC
Put plainly: ELISA on coated KLH-conjugated peptide. On the procedure: as §1, §2

The target of assay [2] is T5, human OX40 extracellular domain fused to the Fc portion of human IgG1 (hOX40:hFc) (human).
T5 construct: Made in Tn5 insect cells; also called OX40-hIgG1; human OX40:hIgG1 fusion protein
Nature of the assay: ELISA, OX40L-FLAG binding to coated hOX40:hFc, anti-FLAG-HRP. On the procedure:
(§3) The ability of 112F32, 112V8, 112Y131, 112Y55, and 112Z5 to block soluble hOX40L binding to coated hOX40:hFc fusion protein was tested using an ELISA protocol (FIG. 5A, Table 3). The plates were coated with hOX40:hFc and after blocking non-specific sites the anti-OX40 antibodies were allowed to bind. Without washing OX40L-FLAG was added to the wells. Bound ligand was detected with anti-FLAG-HRP secondary antibody. Percent inhibition was determined using the following formula (100−(OD sample/OD maximum OX40L binding))*100. 112V8, 112Y55, and 112Y131 prevented 85% of the binding of soluble OX40L to hOX40:hFc. 112F32 prevented approximately 70% of the binding of soluble hOX40L to hOX40:hFc and 112Z5 blocked 67% of the maximal binding.

The target in assay [3] is T5, human OX40 extracellular domain fused …. Nature of the assay: ELISA, blocking of OX40L-FLAG binding to coated hOX40:hFc. On the procedure:
as §3

Assay [4] deals with T1, human OX40 (CD134), full length, …. Nature of the assay: flow cytometry titration on activated human T cells, anti-human IgG-PE. On the procedure: Following twenty minute incubation on ice, the cells were washed once and fixed ten minutes with 1% paraformaldehyde. After a final wash the cells were resuspended in staining buffer and the samples were acquired using FACScan or FACS Calibur flow cytometers (Becton Dickinson Biosciences, Palo Alto, Calif.), and the data were analyzed using Cellquest (Becton Dickinson Biosciences) or Flow Jo (TreeStar, Inc., San Carlos, Calif.) software. The activated T cells were also stained with mouse anti-human OX40 antibody L106 (Becton Dickinson), which was directly conjugated to phycoerythrin or whose binding was detected with anti-mouse IgG-PE (Southern Biotechnology Associates.) OX40L Blocking Assays: To determine if the anti-human OX40 antibodies could block OX40L binding to soluble OX40 both ELISA and flow cytometric protocols were used. In the ELISA 96 well Nunc flat bottom plates were coated with recombinant soluble hOX40:hFc at 2 μg/ml in carbonate buffer (pH9.4) for one hour at 37° C. The plates were washed with PBS/0.1% Tween 20 and Superblock (Pierce) was added to the wells to block non-specific binding. The test antibodies were diluted to 1 μg/ml in PBS/Tween and added to the plates. After one hour incubation at 37° C., FLAG tagged recombinant soluble human OX40L (Alexis Biochemicals, San Diego, Calif.) was added to the appropriate wells without washing out the anti-OX40 antibodies. Following one hour incubation, the plates were washed and an anti-FLAG-peroxidase conjugated antibody (Sigma) was added to the wells for one hour at 37° C. The TMB substrate was added, after ten minutes the reaction was stopped with H₂SO₄, and the results were read at 450 nm using a microplate reader. In the flow cytometric assay, human CD4+ T cells were purified and activated with PHA+IL2 for two days. The cells were washed and resuspended in staining buffer and then incubated with increasing amounts of human anti-human OX40 antibodies for twenty minutes on ice, from 0.005-50 μg/ml. Soluble recombinant OX40L-FLAG was then added to the cells. The cells were washed and incubated with anti-FLAG conjugated to PE (Sigma). After another wash, the cells were fixed with 1% paraformaldehyde and analyzed on a FACScan or FACScalibur.

No end group written: not given here.

T5 sequence (chain, as listed by the source limits assumed): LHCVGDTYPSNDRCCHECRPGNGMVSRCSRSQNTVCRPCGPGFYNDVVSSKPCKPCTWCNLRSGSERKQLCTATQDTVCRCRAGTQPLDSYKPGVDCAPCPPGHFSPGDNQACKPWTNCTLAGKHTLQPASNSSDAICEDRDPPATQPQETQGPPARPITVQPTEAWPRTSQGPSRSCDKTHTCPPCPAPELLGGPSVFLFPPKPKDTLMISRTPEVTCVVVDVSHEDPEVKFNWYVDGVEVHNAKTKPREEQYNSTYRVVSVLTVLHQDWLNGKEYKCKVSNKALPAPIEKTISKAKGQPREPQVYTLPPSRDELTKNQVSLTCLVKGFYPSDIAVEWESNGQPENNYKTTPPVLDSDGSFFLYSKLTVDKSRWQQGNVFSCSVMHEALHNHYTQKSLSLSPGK

B1: 112Y55 human anti-human OX40 monoclonal antibody (hybridoma ATCC No. PTA-7220) (antibody, V domains shown)
VH: QITLKESGPTLVKPTQTLTLSCTFSGFSLSTSGVGVGWIRQPPGKALEWLALIHWDDAERYSPSLKSRLTITKDTSKNQVVLTMTNMDLVDTATYYCAHTRGAFDIWGQGTMVTVSS
VL: EIVLTQSPGTLSLSPGERAILSCRASQSVSSSFLAWYQQKPGQAPRLLIYGAFSRATGIPDRFSGSGSGTDFTLTISRLEPEDFAVYYCQQYDSSRTFGQGTKVEIK
B1: the “ADCC % Lysis at 10 µg/ml” value in assay [1] is 54.2%. Further, the binding result with human OX40 peptide 112A, with human OX40 peptide 112B and with human OX40 peptide 112C was “no binding (tested: 10 µg/ml)” each time. Also, in assay [2], the “percent inhibition of OX40L binding” value was found to be 85%. In assay [3], this molecule had an IC50 of 0.073 µg/mL. In assay [4], the “BMAX Geo Mean” value is 162 geometric mean fluorescence. This molecule yielded a Kd in assay [4] of 14 nM.

B2: 112Y131 human anti-human OX40 monoclonal antibody (hybridoma ATCC No. PTA-7218) (antibody, V domains shown)
VH: QITLKESGPTLVKPTQTLTLTCTFSGFSLSTSGVGVGWIRQPPGKALEWLALIYWDDHSPYSPSLKSRLTITKDTSKNQVVLTMTNMDPVDTATYYCARTRGAFDIWGQGTMVTVSS
VL: EIVLTQSPATLSLSPGERATLSCRASQGVSSYLAWYQQKPGQAPRLLIYDASNRATGIPARFSGSGPGTDFTLTISSLEPEDFAVYYCQQRSNWHPTFGQGTKVEIK
For the molecule B2, the “ADCC % Lysis at 10 µg/ml” value in assay [1] turned out to be 18%. Further, the binding result in the assay with human OX40 peptide 112A, with human OX40 peptide 112B and with human OX40 peptide 112C was “no binding (tested: 10 µg/ml)” each time. Moreover, in assay [2], the “percent inhibition of OX40L binding” value came out at 85%. This molecule displayed an IC50 in assay [3] of 0.069 µg/mL. Further, the “BMAX Geo Mean” value in assay [4] was 171 geometric mean fluorescence. In assay [4], this molecule registered a Kd of 25 nM.
